Assay results: publication PMC8699310, “Development of a Low-Molecular-Weight Aβ42 Detection System Using a Enzyme-Linked Peptide Assay” (Biomolecules, 2021)
Ends that are not written are not given here.

Legend:
Aβ42 [1] = biological target: T1, Aβ42 (Homo sapiens, UniProt P05067); experiment: Spiking and recovery test of Aβ42; settings: PBS, 100 μM peptide assay, triplicate
T1 construct: purchased Abcam ab120301
Description: PBS and human serum were used as solutions for the spiking test. Each of the Aβ42 and Aβ40 stock solutions was diluted using PBS, and the mixture was diluted using human serum. The diluted samples were added to antibody-coated plates and incubated for 2 h. The binding conditions used for the antibody coating and the peptide, streptavidin, and TMB treatment steps are described above. To calculate the recovery ratio, we divided the signals of the mixtures by the signals of Aβ42.

Aβ42 [2] = biological target: T1, Aβ42; experiment: Binding of synthetic biotinylated peptide to Aβ42 captured on antibody-coated plate (enzyme-linked peptide assay, OD450); settings: biotin-conjugated peptide serially diluted, 1 h, PBST, Aβ42 captured by anti-Aβ42 antibody (protein G plate), streptavidin-HRP/TMB, Hill-slope fitting, triplicate, read-out: dissociation constant (KD)
Description: ABPP was conjugated with biotin as a signal reporter, with a purity greater than 95%, as assessed using high-performance liquid chromatography. The binding affinities of peptides were estimated for each Aβ42- and antibody-coated plate. The coating methods followed the protocol described above, except for the use of PBST instead of TBST. After coating the plate with Aβ42, serially diluted peptide was added to the plate for 1 h. After peptide incubation, all wells were washed four times with PBST. Next, the wells were incubated with 100 µL of streptavidin-HRP (1:4000 in PBST) for 1 h. After incubation, the solution in the wells was washed four times with PBST. TMB solution was added to each well for 15 min. Next, 100 µL of 1 M H2SO4 was added to the wells to stop the reaction, and the absorbance was measured at 450 nm (OD450) using a microplate reader. To determine the detection range, serially diluted Aβ42 was added to the antibody-coated plates. After washing, the plate was incubated for 1 h with 100 µL of 100 µM peptide. Streptavidin and TMB treatment steps were performed as described above. Based on the measurements, the limit of detection (LOD) for the diagnostic system was calculated according to the formula from the IUPAC: LOD = 3 × SD/slope. To verify the specificity of our diagnostic system, other amyloid proteins were added to the antibody-coated plates. […]

T1 sequence (P05067 672-713 limits assumed): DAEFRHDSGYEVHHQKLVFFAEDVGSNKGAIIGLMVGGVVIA

Substance: Aβ42: Aβ42 (ab120301) purchased from Abcam; analyte spiked in recovery test
- Average Recovery (Aβ42 [1]; Aβ40 + Aβ42 = 10 + 40 ng/mL, SD 12.46%, %RSD 12.84): 97.02%
- Average Recovery (Aβ42 [1]; Aβ40 + Aβ42 = 20 + 40 ng/mL, SD 5.81%, %RSD 6.053): 96.04%
- Average Recovery (Aβ42 [1]; Aβ40 + Aβ42 = 40 + 40 ng/mL, SD 10.51%, %RSD 10.15): 104.5%

Substance: SEPQNIWQYLRN [ABPP]
- Kd (Aβ42 [2]): 17.5 ± 2.98 µM
